We go through one sequence from publication PMC6447653.

The target in the data set is T1, AtWRI1 (Arabidopsis thaliana) (UniProt Q6X5Y6).
T1 sequence: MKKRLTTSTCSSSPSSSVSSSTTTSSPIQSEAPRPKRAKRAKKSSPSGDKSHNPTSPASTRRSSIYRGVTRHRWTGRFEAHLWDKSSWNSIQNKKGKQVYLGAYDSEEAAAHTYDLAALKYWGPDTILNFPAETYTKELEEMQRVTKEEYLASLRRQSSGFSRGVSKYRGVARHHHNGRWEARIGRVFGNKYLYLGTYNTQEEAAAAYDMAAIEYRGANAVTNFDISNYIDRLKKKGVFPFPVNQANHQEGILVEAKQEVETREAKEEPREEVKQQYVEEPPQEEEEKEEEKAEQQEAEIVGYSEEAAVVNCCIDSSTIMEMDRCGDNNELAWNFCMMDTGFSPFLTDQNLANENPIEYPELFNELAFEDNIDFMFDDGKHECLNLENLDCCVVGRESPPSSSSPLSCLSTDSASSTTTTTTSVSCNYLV
In words: EMSA. Particulars: fEMSA: 150 mM KCl, 0.1 mM DTT, 10 mM Tris pH 7.4, 150 ng poly(dI-dC), 50 ng Cy5 probe, 10 ul, 30 min, room temperature. A general note: In EMSA bound probe runs differently from free probe, usually more slowly.

For the sequence “TAAAAGAGTTGGGTTTCTTCGTAAGCATCGAAATCAGATTTCTTTACCAAAGAAAAAATAAAGAAAAGAAAAATATAGCAAGTACACTGCATTTCAACACTCTCATATCTCTCCTTCCTACTTCCTCGGTTTCATCGTCCACTGTCTCAA (double strand) [BCCP2up (-2/-151)]”, the binding entry was “binds”.
